In article PMC3553987:

Columns and labels:
[1] = system: U-STAT1 (unphosphorylated STAT1) (human); test: EMSA
[2] = system: P-STAT1 (phosphorylated STAT1) (human); test: TIRF-PBM; conditions: 5' amino on one strand, coupled to hydrogel
[3] = molecular target: T1, c-Myc;Max isoform (human;human) (UniProt P01106+P61244); test: TIRF-PBM; conditions: 5' amino on one strand, coupled to hydrogel
[4] = molecular target: T1, c-Myc;Max isoform (human;human); test: TIRF-PBM; conditions: 5' amino on one strand, coupled to hydrogel; remark: listed apart in the source

T1 sequence (P01106 16-454, chain 1 of 2): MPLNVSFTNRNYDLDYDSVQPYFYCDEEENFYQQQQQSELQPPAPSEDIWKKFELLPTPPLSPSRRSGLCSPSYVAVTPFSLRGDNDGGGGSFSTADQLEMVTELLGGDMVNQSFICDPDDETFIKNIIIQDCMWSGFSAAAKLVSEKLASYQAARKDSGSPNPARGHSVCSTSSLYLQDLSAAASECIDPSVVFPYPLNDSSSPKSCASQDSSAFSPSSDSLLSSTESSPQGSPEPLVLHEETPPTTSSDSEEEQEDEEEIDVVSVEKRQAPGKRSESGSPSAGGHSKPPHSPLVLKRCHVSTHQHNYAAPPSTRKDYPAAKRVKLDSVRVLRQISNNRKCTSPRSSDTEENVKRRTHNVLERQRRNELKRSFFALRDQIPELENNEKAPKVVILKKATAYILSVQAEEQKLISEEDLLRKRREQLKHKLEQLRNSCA
T1 sequence (P61244 2-160, chain 2 of 2): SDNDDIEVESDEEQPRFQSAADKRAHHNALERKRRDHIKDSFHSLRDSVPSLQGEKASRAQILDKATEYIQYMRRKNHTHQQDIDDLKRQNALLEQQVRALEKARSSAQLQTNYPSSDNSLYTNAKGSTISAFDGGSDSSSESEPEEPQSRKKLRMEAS

For GAS cognate DNA (EMSA), the binding signal (fold lower affinity than P-STAT1) [1] was greater than 200.
sequence 70 (optimal GAS, spacer CCG) was tested, and the Kd [2] was 3.4 nM.
With “Myc/Max cognate E-box DNA (probe number not given)” the Kd [3] was 3.6 nM and the Kd [4] was 0.9 nM.
